Laboratory results published in paper PMC9352680, “A comprehensive thermodynamic model for RNA binding by the Saccharomyces cerevisiae Pumilio protein PUF4”.

T1: PUF4 RNA-binding domain (Saccharomyces cerevisiae, UniProt P25339 537-888)
T1 sequence: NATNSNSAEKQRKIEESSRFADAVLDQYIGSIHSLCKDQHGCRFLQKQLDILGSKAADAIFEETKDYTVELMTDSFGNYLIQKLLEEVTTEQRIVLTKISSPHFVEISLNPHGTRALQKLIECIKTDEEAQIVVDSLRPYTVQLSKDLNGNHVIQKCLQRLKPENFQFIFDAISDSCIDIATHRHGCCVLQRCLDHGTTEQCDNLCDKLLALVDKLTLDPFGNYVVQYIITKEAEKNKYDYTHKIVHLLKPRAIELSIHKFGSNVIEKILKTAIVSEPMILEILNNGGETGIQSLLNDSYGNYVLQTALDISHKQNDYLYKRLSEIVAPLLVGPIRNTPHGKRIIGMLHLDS


Molecular target: T1, PUF4 RNA-binding domain
Experiment: Mg; RNA-MaP; 20 mM Na-HEPES pH 7.4, 30 mM KOAc, 0.75 mM MgCl2, 0.1% Tween-20, 5% glycerol, 0.1 mg/mL BSA, 2 mM DTT; 25 C; 0.0125-409.6 nM protein
Details: tags: N-His6-TEV cleaved; C-SNAP kept, Cy3B-labelled; label: tethered on chip by stalled RNA polymerase

Binder | Kd
Id_ii_S4_P4E.3_K4.2_C4.2_[C-2T]_H4.2_A4.1_F4.1_T4.2_[G10C]_[T11C] (ssRNA) RNA: UUUGACAACUGAUCGUUCUUUCUUUUAUAUAUUACCUUCUUUCUCGAUCAGUUGUCUUU | 9.36 nM
Id_ii_S4_P4E.2_K4.1_C4.2_H4.1_A4.1_F4.1_T4.2_[G10T] (ssRNA) RNA: UUUGACAACUGAUCGUUCUUUCUCUUGUAUAUUAUUUUCUUUCUCGAUCAGUUGUCUUU | 0.116 nM
Id_ii_S4_P4E.3_K4.2_C4.2_[C-2A]_H4.2_A4.1_F4.1_T4.2_[G10C]_[T11A] (ssRNA) RNA: UUUGACAACUGAUCGUUCUUUCUAUUAUAUAUUACAUUCUUUCUCGAUCAGUUGUCUUU | 12.2 nM
Id_ii_S4_P4E.3_K4.2_C4.2_[C-2T]_[T-1C]_H4.2_A4.1_F4.1_T4.2_[G10T]_[T11A] (ssRNA) RNA: UUUGACAACUGAUCGUUCUUUCUUCUAUAUAUUAUAUUCUUUCUCGAUCAGUUGUCUUU | 12 nM
Id_ii_S4_P4E.3_K4.2_C4.2_[C-2G]_H4.2_A4.1_F4.1_T4.2_[G10C] (ssRNA) RNA: UUUGACAACUGAUCGUUCUUUCUGUUAUAUAUUACUUUCUUUCUCGAUCAGUUGUCUUU | 38.1 nM
Id_ii_S4_P4E.3_K4.2_C4.2_[C-2G]_[T-1G]_H4.2_A4.1_F4.1_T4.2_[G10A] (ssRNA) RNA: UUUGACAACUGAUCGUUCUUUCUGGUAUAUAUUAAUUUCUUUCUCGAUCAGUUGUCUUU | 125 nM
Id_ii_S4_P4E.3_K4.2_C4.2_[C-2T]_H4.2_A4.1_F4.1_T4.2_[G10C]_[T11G] (ssRNA) RNA: UUUGACAACUGAUCGUUCUUUCUUUUAUAUAUUACGUUCUUUCUCGAUCAGUUGUCUUU | 10.1 nM
Id_ii_S4_P4E.2_K4.1_C4.2_H4.1_A4.1_F4.1_T4.2_[G10C] (ssRNA) RNA: UUUGACAACUGAUCGUUCUUUCUCUUGUAUAUUACUUUCUUUCUCGAUCAGUUGUCUUU | 0.434 nM
Id_ii_S4_P4E.3_K4.2_C4.2_[C-2T]_[T-1G]_H4.2_A4.1_F4.1_T4.2_[G10T] (ssRNA) RNA: UUUGACAACUGAUCGUUCUUUCUUGUAUAUAUUAUUUUCUUUCUCGAUCAGUUGUCUUU | 1.83 nM
Id_ii_S4_P4E.3_K4.2_C4.2_[C-2A]_[T-1C]_H4.2_A4.1_F4.1_T4.2_[G10T]_[T11C] (ssRNA) RNA: UUUGACAACUGAUCGUUCUUUCUACUAUAUAUUAUCUUCUUUCUCGAUCAGUUGUCUUU | 6.68 nM
Id_ii_S4_P4E.3_K4.2_C4.2_[T-1G]_H4.2_A4.1_F4.1_T4.2_[G10A] (ssRNA) RNA: UUUGACAACUGAUCGUUCUUUCUCGUAUAUAUUAAUUUCUUUCUCGAUCAGUUGUCUUU | 12.4 nM
Id_ii_S4_P4E.3_K4.2_C4.2_[C-2A]_[T-1A]_H4.2_A4.1_F4.1_T4.2_[G10T]_[T11C] (ssRNA) RNA: UUUGACAACUGAUCGUUCUUUCUAAUAUAUAUUAUCUUCUUUCUCGAUCAGUUGUCUUU | 39.7 nM
Id_ii_S4_P4E.3_K4.2_C4.2_[C-2T]_[T-1A]_H4.2_A4.1_F4.1_T4.2_[G10A]_[T11A] (ssRNA) RNA: UUUGACAACUGAUCGUUCUUUCUUAUAUAUAUUAAAUUCUUUCUCGAUCAGUUGUCUUU | 42 nM
Id_ii_S4_P4E.3_K4.2_C4.2_[C-2T]_[T-1C]_H4.2_A4.1_F4.1_T4.2_[G10T]_[T11C] (ssRNA) RNA: UUUGACAACUGAUCGUUCUUUCUUCUAUAUAUUAUCUUCUUUCUCGAUCAGUUGUCUUU | 5.07 nM
Id_ii_S4_P4E.2_K4.1_C4.2_[T-1A]_H4.1_A4.1_F4.1_T4.2_[T11G] (ssRNA) RNA: UUUGACAACUGAUCGUUCUUUCUCAUGUAUAUUAGGUUCUUUCUCGAUCAGUUGUCUUU | 1.11 nM
Id_ii_S4_P4E.2_K4.1_C4.2_H4.1_A4.1_F4.1_T4.2_[G10A] (ssRNA) RNA: UUUGACAACUGAUCGUUCUUUCUCUUGUAUAUUAAUUUCUUUCUCGAUCAGUUGUCUUU | 0.324 nM
Id_ii_S4_P4E.3_K4.2_C4.2_[C-2G]_H4.2_A4.1_F4.1_T4.2_[G10A] (ssRNA) RNA: UUUGACAACUGAUCGUUCUUUCUGUUAUAUAUUAAUUUCUUUCUCGAUCAGUUGUCUUU | 62 nM
Id_ii_S4_P4E.3_K4.2_C4.2_[C-2T]_[T-1A]_H4.2_A4.1_F4.1_T4.2_[G10C]_[T11G] (ssRNA) RNA: UUUGACAACUGAUCGUUCUUUCUUAUAUAUAUUACGUUCUUUCUCGAUCAGUUGUCUUU | 28.4 nM
Id_ii_S4_P4E.3_K4.2_C4.2_[T-1C]_H4.2_A4.1_F4.1_T4.2_[G10A] (ssRNA) RNA: UUUGACAACUGAUCGUUCUUUCUCCUAUAUAUUAAUUUCUUUCUCGAUCAGUUGUCUUU | 4.86 nM
Id_ii_S4_P4E.2_K4.1_C4.2_[T-1C]_H4.1_A4.1_F4.1_T4.2_[G10T]_[T11C] (ssRNA) RNA: UUUGACAACUGAUCGUUCUUUCUCCUGUAUAUUAUCUUCUUUCUCGAUCAGUUGUCUUU | 0.317 nM
Id_ii_S4_P4E.3_K4.2_C4.2_[C-2T]_[T-1G]_H4.2_A4.1_F4.1_T4.2_[G10T]_[T11C] (ssRNA) RNA: UUUGACAACUGAUCGUUCUUUCUUGUAUAUAUUAUCUUCUUUCUCGAUCAGUUGUCUUU | 3.99 nM
Id_ii_S4_P4E.3_K4.2_C4.2_[T-1G]_H4.2_A4.1_F4.1_T4.2_[G10T]_[T11C] (ssRNA) RNA: UUUGACAACUGAUCGUUCUUUCUCGUAUAUAUUAUCUUCUUUCUCGAUCAGUUGUCUUU | 13.1 nM
UCUCUUUAUAUCAUUAUCUCUU (ssRNA) [Ib_S1_P5E.1_K5.1_C5.1_H5.1_[G2A]_A5.1_[T6C]_F5.1_T5.1] | 752 nM
UCUCUUUAUAUAAUUAUCUCUU (ssRNA) [Ib_S1_P5E.1_K5.1_C5.1_H5.1_[G2A]_A5.1_[T6A]_F5.1_T5.1] | 1010 nM
